From publication PMC11578312, “Proximity‐Unlocked Luminescence by Sequential Enzymatic Reactions from Antibody and Antibody/Aptamer (PULSERAA): A Platform for Detection and Visualization of Virus‐Containing Spots” come the findings set out here.

In data set [1] the target is T1, myoglobin (Mb) (UniProt P02144 2-154).
T1 sequence: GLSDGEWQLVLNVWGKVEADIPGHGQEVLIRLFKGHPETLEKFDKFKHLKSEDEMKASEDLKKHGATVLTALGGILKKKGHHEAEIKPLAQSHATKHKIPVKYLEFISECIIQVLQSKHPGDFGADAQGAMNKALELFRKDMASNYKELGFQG
The data set is described as follows: dot blot (aptamer blotting); folded in 10 mM K acetate pH 5.0; higher signal than N2 at low Mb; dot blot: 10 mM sodium phosphate pH 7.0, 10 mM KCl, 0.05% Tween-20, 100 nM oligonucleotide, 25 C, 1 h (block 2% BSA); ELONA: 500 nM aptamer, 25 C, 1 h, TBS-T wash. The conditions noted are these: protein: commercial; label: 3'-biotinylated oligonucleotide mixed; parallel G4 at pH 7.0 with 10 mM Na+ and 10 mM K+.

Data set [2] concerns the target T1, myoglobin (Mb). The data set is described as follows: dot blot (aptamer blotting); folded in 10 mM K acetate pH 5.0; dot blot: 10 mM sodium phosphate pH 7.0, 10 mM KCl, 0.05% Tween-20, 100 nM oligonucleotide, 25 C, 1 h (block 2% BSA); ELONA: 500 nM aptamer, 25 C, 1 h, TBS-T wash. The settings on record: protein: commercial; label: 3'-biotinylated oligonucleotide mixed; mixed or hybrid (3+1) G4 at pH 5.0.

For the molecule GGGCGGGTTGGGCTGGGTTTGGGGCTGCTCGGGATTGCGGATATGG (structured_DNA) [PEA3-01–RBD-46], the binding result in the data set with myoglobin (Mb) [1] is listed as “binds”.
As to GGGGCTGCTCGGGATTGCGGATATGGTTTGGGCGGGTTGGGCTGGG (structured_DNA) [RBD-46–PEA3-01], the binding result with myoglobin (Mb) [2] is “binds”.
